From paper PMC2786245 (Biochemistry, 2009) come the findings set out here.

This data set deals with the molecule itself. Description: native gel or EMSA.

B1: PII Δ47−53 (deletion of the apex of the T-loop) (natural protein, Escherichia coli, UniProt P0A9Z1 1-112, looked up)
chain: MKKIDAIIKPFKLDDVREALAEVGITGMTVTEVKGFGRQKGHTELYDFLPKVKIEIVVPDDIVDTCVDTIIRTAQTGKIGDGKIFVFDVARVIRIRTGEEDDAAI
Take B1: the binding result is listed as “binds”.
